Target: the molecule itself
Experiment: SDS-PAGE without reducing agent and western blot; total membrane preparation of oocytes expressing myc-tagged hSGLT1, 7.5 or 10% polyacrylamide gel, absence of β-Mercaptoethanol, detected with α-c-myc

B1: wt myc-tagged human sodium-glucose cotransporter 1 (hSGLT1) (natural protein, UniProt P13866 1-664, looked up)
chain: MDSSTWSPKTTAVTRPVETHELIRNAADISIIVIYFVVVMAVGLWAMFSTNRGTVGGFFLAGRSMVWWPIGASLFASNIGSGHFVGLAGTGAASGIAIGGFEWNALVLVVVLGWLFVPIYIKAGVVTMPEYLRKRFGGQRIQVYLSLLSLLLYIFTKISADIFSGAIFINLALGLNLYLAIFLLLAITALYTITGGLAAVIYTDTLQTVIMLVGSLILTGFAFHEVGGYDAFMEKYMKAIPTIVSDGNTTFQEKCYTPRADSFHIFRDPLTGDLPWPGFIFGMSILTLWYWCTDQVIVQRCLSAKNMSHVKGGCILCGYLKLMPMFIMVMPGMISRILYTEKIACVVPSECEKYCGTKVGCTNIAYPTLVVELMPNGLRGLMLSVMLASLMSSLTSIFNSASTLFTMDIYAKVRKRASEKELMIAGRLFILVLIGISIAWVPIVQSAQSGQLFDYIQSITSYLGPPIAAVFLLAIFWKRVNEPGAFWGLILGLLIGISRMITEFAYGTGSCMEPSNCPTIICGVHYLYFAIILFAISFITIVVISLLTKPIPDVHLYRLCWSLRNSKEERIDLDAEEENIQEGPKETIEIETQVPEKKKGIFRRAYDLFCGLEQHGAPKMTEEEEKAMKMKMTDTSEKPLWRTVLNVNGIILVTVAVFCHAYFA
notes: human sodium-glucose cotransporter 1 (hSGLT1), wild type; Dimer held by a disulfide bridge between the C355 residues of two molecules, by non-reducing western blot; also called wt hSGLT1; wtSGLT1; source: Xenopus laevis oocytes injected with mRNA, total membrane preparation
stoichiometry N: 2

Source: publication PMC4854415, “The Human Sodium-Glucose Cotransporter (hSGLT1) Is a Disulfide-Bridged Homodimer with a Re-Entrant C-Terminal Loop” (PLoS ONE, 2016)
